The results in this text go back to US8871276B2, “Beta-casein assemblies for mucosal delivery of therapeutic bioactive agents” (Technion Research and Development Foundation Ltd., priority 2008, dated 2014).

“And” between values parts separate entries of the source, which are not always exact repeats. Equal values may be shown once.

Holding throughout (format): physicochemical
Data set [1] in a line: Light microscopy (Nomarski DIC) / visual solubility observation. Conditions: hepes buffer, neutral pH, with or without β-casein. As for the experimental part: An Olympus BX51 light microscope was operated at Nomarski differential interference contrast (DIC) optics. A 5 μL drop was placed on a glass slide, covered with a cover slide. Images were recorded digitally with an Olympus DP71 digital camera connected to the light microscope. Image processing was performed using Cell A (Olympus).
Bovine β-casein (>90%; Sigma-Aldrich) was dissolved in pH 7.0 hepes buffer containing 200 mM hepes (MP Biomedicals), 10 mM MgCl2 (Sigma-Aldrich), 20 mM EGTA (Sigma-Aldrich) and 10 mM NaCl (Loba Chemie), and was placed over-night at 4° C. under stirring. The protein solutions were prepared at concentrations ranging from 0.5 to 2 wt % (0.21 to 0.83 mM respectively), and were filtered through a porous membrane of 0.45 μm to avoid large protein aggregates. […] Stirring continued for 30 minutes in room temperature. […] The specimens remained stable i.e., no precipitation was observed, for at least 3 weeks at 4° C.

Data set [2] is described as follows: Water content by Karl Fischer Coulometer. As for the experimental part:
In this experiment the water content of celocoxib (CXB), beta-casein (β-CN) 1% nanocarriers, Sigma beta-casein (β-CN, Sigma material), and CXB-loaded β-CN 1% nanocarriers was measured by Metrohm 831 Karl Fischer Coulometer.
In an attempt to reduce the water content, an additional lypholization cycle was performed for the empty and CXB-loaded β-CN 1% nanocarriers. After this second lyophilization cycle water content was measured by Metrohm 831 Karl Fischer Coulometer.
Specifically, the first cycle lasted for 24 hours (data is presented in tables 5-7) then all samples were subjected to an additional cycle of lyophilization that lasted for 48 hours (total of 72 hours). Tables 8 and 9 present the results of samples that were subjected to 24, […], and 72 hours of lyophilization.

Data set [3] is described as follows: Small angle X-ray scattering (SAXS) of micelles. Conditions: 1 wt % β-casein, empty or loaded 1:8 protein:celecoxib, pH ~7. As for the experimental part:
The small angle X-ray scattering equipment consisted of a SAXSess camera (Anton-Paar, Graz, Austria) connected to an X-ray generator (Philips, PW 1730/10) operating at 40 kV and 50 mA with a sealed-tube Cu anode. A Gael mirror was used to convert the divergent polychromatic X-ray beam into a focused line-shaped beam of Cu Kα radiation (λ=0.154 nm). The 2D scattering pattern was recorded by a PI-SCX fused fiber optic taper CCD camera from Princeton Instruments, which is a division of Roper Scientific, Inc. (Trenton, N.J., USA). The used CCD detector features a 2084×2084 array with 24×24 μm pixel size (chip size: 50×50 mm). The CCD was operated at −30° C. with 10° C. water-assisted cooling to reduce the thermally generated charge. Cosmic ray correction and background subtraction were performed on the 2D image before further data processing. The 2D image was integrated into the one-dimensional scattering function within a band of 10 mm. The measurement time was 30 min for each scattering curve (6 images of 5 minutes were taken to assist the cosmic ray correction).
The molecular weight of the scattering aggregates were calculated according to Eq. 1:
[formula] where M is the molecular weight, dΣ(0)/dΩ (cm^−1) the forward scattering intensity at q=0, c (g/cm^3) the β-casein concentration, NA the Avogadro number, and ΔρM (cm/g) the scattering length difference per mass, given by: ΔρM=Δρ ν (2)
The scattering length difference Δρ (cm^−2) was calculated using the known chemical composition of the protein and the solvent, and ν (cm^3/g), the specific volume of the protein in the solution that was calculated via density measurement of the solvent and the solution. The micelle aggregation number was then calculated by dividing the molecular weight of the micelles determined with Eq. 1, by the molecular weight of a single protein molecule.
For a particle of arbitrary shape with a scattering density difference of Δρ(r), the pair distance distribution function p(r) (PDDF) is given by: p(r)=r^2Δ ρ^2(r) (3) where Δ ρ^2(r) is the convolution square of Δρ(r) averaged for all directions in space. The PDDF is related to the scattered intensity l(q) by a Fourier transformation, and it enables the determination of the overall shape and size of the scattering objects.
[formula] λ is the wavelength of the incident radiation and θ is the angle between the scattered and incident beam. The function ƒ(r)=p(r)/r (6) is useful to identify flat plate-like particles, although it has no direct physical meaning. For lamellae, this function starts with a linearly increasing part and becomes almost flat when r is equal to the thickness of the lamella. For flat particles with a finite base area, the outer part decreases linearly because of boundary losses. The thickness of the lamella can then be read from the transition point.
The structural characteristics of the micelles in the two pH environments were studied by cryo-TEM and SAXS (Small Angle X-ray Scattering). Cryo-TEM was used to determine the shape of the micelles and to estimate their dimensions between 4 and 40° C. This information was further used to accurately calculate the micelles' dimensions from the SAXS data, and to study how the size and shape are affected by temperature. SAXS measurements also provided the critical micelle concentration (CMC) and the micelle aggregation numbers as a function of temperature. Experiments were performed in the concentration range of 0.1-40 mg/mL protein, at low pH (between 2.1 and 2.6) in dilute lactic acid solution (6 wt %) or HCl and in aqueous solutions at pH 6.7-7.3 in absence of salts or the presence of up to 0.1M NaCl.
SAXS measurements were used to determine the shape and dimensions of the micelles at low pH more precisely, and to evaluate the micelle molecular weight (i.e., the aggregation number). The scattering curves of 20 mg/mL β-casein in lactic acid solution (pH 2.6, IS 0.0022) at different temperatures are shown in FIG. 3a. […]

The nature of data set [4]: Small angle X-ray scattering (SAXS) of micelles. Conditions: 1 wt % β-casein, empty or loaded 1:8 protein:celecoxib, pH ~7. This is another data set of the same source.

On to `Cc1ccc(-c2cc(C(F)(F)F)nn2-c2ccc(S(N)(=O)=O)cc2)cc1` [Celecoxib, celecoxib, reference compound], for which the “Solubility in aqueous buffer (observation)” value in data set [1] was “poor solubility”.
In the case of `CC(C)CCC[C@@H](C)[C@H]1CC[C@H]2[C@@H]3CC=C4C[C@@H](O)CC[C@]4(C)[C@H]3CC[C@]12C` [Cholesterol, cholesterol], the “Solubility in aqueous buffer (observation)” value in data set [1] is “does not dissolve in buffer at all”.

B1: β-CN: Sigma beta-casein raw material powder (protein, UniProt P02666 16-224, looked up)
Beta-casein: RELEELNVPGEIVESLSSSEESITRINKKIEKFQSEEQQQTEDELQDKIHPFAQTQSLVYPFPGPIPNSLPQNIPPLTQTPVVVPPFLQPEVMGVSKVKEAMAPKHKEMPFPKYPVEPFTESQSLTLTDVENLHLPLPLLQSWMHQPHQPLPPTVMFPPQSVLSLSQSKVLPVPQKAVPYPQRDMPIQAFLLYQEPVLGPVRGPFPIIV
As to B1, the “Average water content of lyophilized (dried) powders” value in data set [2] (data of Tables 5-7) is reported as “more than 10 % w/w”. Also, in data set [2] (β-CN Sigma material, lyophilization time none, average), the “% water, AVR” value was 13.0%. In addition, the “% water” value in data set [2] (β-CN Sigma material, single sample) is 15.0% and 9.4% and 14.7%.

B2: β-casein dried: empty β-casein micelles after lyophilization and re-suspension (protein, UniProt P02666 16-224, looked up)
Beta-casein: RELEELNVPGEIVESLSSSEESITRINKKIEKFQSEEQQQTEDELQDKIHPFAQTQSLVYPFPGPIPNSLPQNIPPLTQTPVVVPPFLQPEVMGVSKVKEAMAPKHKEMPFPKYPVEPFTESQSLTLTDVENLHLPLPLLQSWMHQPHQPLPPTVMFPPQSVLSLSQSKVLPVPQKAVPYPQRDMPIQAFLLYQEPVLGPVRGPFPIIV
modifications: lyophilized micelles
notes: empty β-casein micelles after lyophilization and re-suspension
As to B2, in data set [3], the “Rg (from Guinier apr.)” value is 8.1 nm and the “V, from a, b” value is listed as 2841 nm^3. Further, the Density in data set [4] is 1.23 g/mL.
